The RNAGym collection of RNA variant scans (doi:10.7554/elife.90254)

B1: OR4K15 (parent)
chain: GUUAACGGUCAUAGGCCAUGGAAACUAGGAGCACCAUUUCGCUGCCAGUGAAGAAAUGAACAAAGAAAAUCUGGGCCAGGCAGGCAUCAAAAGAAAUAGUCUUGCGCUCAACCAGAAAGUCUGUAAUCAUUUUAAGGGUA

Variants of: B1
Experiment: self-cleavage, relative activity (ratio to wild type); higher = more cleavage; in vitro, sequencing; the parent is a self-cleaving ribozyme

| Variant | self-cleavage |
| --- | --- |
| G65U G83U | 0.44 |
| A66G A82U | 0.29 |
| A64U U120G | 1.63 |
| A64U A69G | 1.86 |
| A66U A89C | 0.99 |
| A66U A89G | 1.7 |
| A67G A78U | 0.33 |
| A67G G137U | 2.03 |
| A68G A91G | 1.18 |
| A66U A126G | 1.05 |
| A67G C88A | 1.16 |
| A66G A89U | 1.97 |
| A67G A140C | 1.47 |
| A68G C105G | 0.03 |
| A67C A110G | 0.37 |
| A67G U87C | 1.19 |
| A66G A111G | 0.02 |
| A67G A96G | 1.53 |
| A67G A96U | 1.03 |
| A67G A90U | 1.13 |
| A67G A90G | 0.96 |
| A66G U72C | 0.09 |
| A64G A126G | 1.05 |
| A68G A90U | 1.58 |

| Variant | self-cleavage |
| --- | --- |
| A68G A90G | 1.17 |
| A67G U132A | 1.42 |
| A68G U108A | 0.04 |
| A68G U108C | 0.01 |
| A64U A134G | 1.44 |
| G65C A111U | 0.07 |
| G65C A111G | 0.01 |
| A64G U120A | 2.01 |
| A64G U120C | 1.13 |
| A64G C121G | 2.89 |
| A68G A89C | 1.1 |
| A68G A89U | 2.23 |
| A64U A92G | 1.11 |
| A67G A134G | 1.7 |
| A68G A134U | 1.49 |
| A64U A91G | 1.04 |
| G65A U132G | 0.82 |
| G65A U132C | 0.58 |
| A64G G137U | 2.23 |
| A67G G136A | 1.63 |
| A64G G106U | 0.02 |
| A66G A95G | 1.54 |
| A66G A95U | 0.2 |
| A66G A95C | 1.5 |

| Variant | self-cleavage |
| --- | --- |
| A67G U139C | 1.64 |
| A67G U139A | 1.87 |
| A67U U72C | 0.31 |
| A67U U72A | 0.2 |
| A66G U133C | 1.82 |
| A66C A95G | 1.92 |
| G65U A86G | 0.19 |
| A68G A96G | 1.04 |
| A64G G136U | 2.02 |
| A66G C105A | 0.05 |
| A64U A95G | 1.95 |
| A64G A134U | 1.07 |
| A66U U100C | 2.47 |
| A64G A110C | 0.36 |
| A64G A110G | 0.22 |
| A68G G79U | 0.07 |
| A67C U87C | 1.79 |
| A66C A78G | 0.32 |
| A64G A92G | 1.48 |
| A66G A126G | 1.07 |
| A66U U120G | 1.14 |
| A66G A68C | 1.13 |
| A66G A68G | 0.62 |
| A66G A91G | 1.04 |

| Variant | self-cleavage |
| --- | --- |
| A67U A117G | 2.28 |
| A66C U127C | 0.14 |
| A68G A82U | 0.22 |
| A68G A82C | 0.2 |
| A68G A82G | 0.62 |
| A68G A135G | 1.23 |
| A68G G104A | 0.04 |
| G65A U124A | 1.36 |
| A66G A98G | 0.38 |
| A68G U122A | 0.93 |
| A67G G75A | 0.11 |
| A66G C76A | 0.23 |
| A64G U103A | 0.55 |
| A67G A110U | 1.46 |
| A67G C76U | 0.07 |
| A68C A118G | 1.84 |
| A67G C121A | 2.73 |
| A64G U87C | 0.87 |
| A66G U131A | 1.7 |
| A64U C113U | 0.05 |
| A68G A116U | 0.21 |
| A66G U130A | 0.6 |
| A67G U72A | 0.26 |
| A67G U72C | 0.32 |

| Variant | self-cleavage |
| --- | --- |
| A67U A118U | 0.53 |
| A64U U72A | 0.05 |
| A67U A91G | 1.91 |
| A67G A111U | 0.12 |
| A68C A94G | 1.69 |
| A67G U108C | 0.02 |
| A67G U108A | 0.02 |
| G65A U108G | 0.01 |
| G65A A140G | 2.16 |
| A68G A111G | 0.01 |
| A66G A125G | 0.25 |
| G65U G138A | 1.24 |
| A67G U103C | 1.36 |
| A68G G106A | 0.02 |
| A66G A92G | 0.74 |
| A67G A125U | 0.11 |
| A64G C105U | 0.12 |
| A66U U103C | 0.48 |
| A68G A126U | 0.66 |
| A68G A126G | 0.6 |
| A67U U130C | 1.04 |
| A66U A111G | 0.01 |
| A66G A90U | 1.31 |
| A66G A90C | 0.17 |

| Variant | self-cleavage |
| --- | --- |
| A67U A125G | 1.2 |
| G65U A90G | 0.96 |
| A64G A111G | 0.05 |
| A64G A111U | 0.1 |
| A64U A118G | 1.42 |
| A67U U97C | 1.43 |
| A67G A91G | 1.07 |
| A66G A135U | 1.08 |
| A68G A95G | 1.98 |
| A64U U108A | 0.02 |
| A66U U131C | 0.84 |
| A66U A117G | 1.44 |
| A64G U139C | 1 |
| A67G A116C | 0.26 |
| A67G A116U | 0.14 |
| A67G A116G | 0.71 |
| A66G G73A | 0.15 |
| A66U A82U | 0.24 |
| A66U A82G | 0.92 |
| G65A U72C | 0.21 |
| A64U A82G | 0.71 |
| A68G G73U | 0.07 |
| A67G U127C | 1.16 |
| A68G A92U | 1.87 |

| Variant | self-cleavage |
| --- | --- |
| A67G C77U | 1.03 |
| A64G U127A | 2.12 |
| A66G A114U | 0.08 |
| A64G A116U | 0.19 |
| A67U A89G | 1.74 |
| G65U | 2 |
| G65A | 1.5 |
| A67G A86G | 1.22 |
| A67U A129U | 1.14 |
| A68C U131C | 0.94 |
| A67U A96G | 1.65 |
| A66G A94G | 1.55 |
| A64G A140G | 1.47 |
| A64U A114G | 0.46 |
| A64U A114U | 0.02 |
| A66U A94G | 1.36 |
| A68G A114C | 0.04 |
| A68G A114G | 0.68 |
| A68G A114U | 0.04 |
| A68G G80A | 0.21 |
| A67U A92G | 2.2 |
| A67G A69C | 1.68 |
| A67G A69U | 1.32 |
